Data as given in patent publication US20090192048A1, “METHOD OF PRODUCING A […] AGENT FOR BINDING A LIGAND” (priority 2005, published 2009).
Ends that are not written are not given here.

Columns and labels:
Assay type in all cases: physicochemical
[1] = Retention of peptides on Costar polypropylene V-bottom wells; conditions: 400V scan; for Untreated fluorescence: unwashed; for Retained fluorescence: washed 15 minutes in 1 M NaCl in 10 mM tris-HCl (pH 8.0)
Method: (§1) The retention of peptides 2DOS-1 to 2DOS-16 (see above) on polypropylene and polystyrene surfaces was compared:
(§2) 5 mM tris-HCl (pH 8.0) in 75% (v/v) aqueous acetonitrile was used as the solvent for the peptides and for TAMRA.
(§3) 20 μl aliquots of 5 μM peptides 2DOS-1 to 2DOS-16 and 5 μM TAMRA were pipetted into the wells of a Costar V-bottomed polypropylene microtitre plate, a Greiner V-bottomed polypropylene microtitre plate, and a Greiner V-bottomed polystyrene microtitre plate according to the scheme shown in FIG. 26:
(§4) The peptide samples were allowed to evaporate to dryness in the dark.
(§5) The peptide samples in the top two rows of the microtitre plates were then incubated for 15 minutes at room temperature in 250 μl of 1 M NaCl in 10 mM tris-HCl (pH 8.0).
(§6) After incubation, the wash buffer was pipetted up and down eight times in the well before removing the supernatant.
(§7) The washed and untreated peptide samples were then resuspended in 50 μl of 10 mM tris-HCl (pH 8.0) in 50% (v/v) aqueous acetonitrile.
(§8) The microtitre plates were imaged at 200 μm resolution on a Typhoon Trio Plus variable mode imager (Amersham Biosciences) with the green (532 nm) laser and the 580 BP 30 filter at the PMT voltages indicated below and at normal sensitivity. The scan height was set at +3 mm and the sample was pressed during scanning.
(§9) The fluorescence images were analysed using ImageQuant TL v2003.03 (Amersham Biosciences).

[2] = Retention of peptides in V-bottomed polypropylene wells; conditions: V-bottom wells, 500V scan; for Untreated fluorescence: unwashed; for Retained fluorescence: washed 15 minutes in 1 M NaCl in 10 mM tris-HCl (pH 8.0)
Method: (§10) The retention of peptides 2DOS-1 to 2DOS-16 (see above) on polypropylene wells of different geometries was investigated:
(§11) 10 mM tris-HCl (pH 8.0) in 50% (v/v) aqueous acetonitrile was used as the solvent for the peptides and for TAMRA.
(§12) 1 μl aliquots of 10 μM peptides 2DOS-1 to 2DOS-16 and 10 μM TAMRA were pipetted into the wells of a Costar V-bottomed polypropylene microtitre plate and a Greiner flat-bottomed polypropylene microtitre plate according to the following scheme as shown in FIG. 22:
as §4
(§13) The peptide samples in the top two rows of the microtitre plates were then incubated for 15′ minutes at room temperature in 250 μl of 1 M NaCl in 10 mM tris-HCl (pH 8.0).
as §6, §7
as §8, with “the platen” for “+3 mm”, “during,” for “during”
as §9

[3] = Retention of peptides on Greiner polystyrene V-bottom wells; conditions: 400V scan; for Untreated fluorescence: unwashed; for Retained fluorescence: washed 15 minutes in 1 M NaCl in 10 mM tris-HCl (pH 8.0)
Method: as §1, §2, §3, §4, §5, §6, §7, §8, §9

[4] = Retention of peptides 2DOS-1 to 2DOS-16 on a hydrophobic surface (polypropylene microtitre plate wells), water wash; conditions: 400V scan; for Initial fluorescence (×10^3): 100 μl of 10 μM peptide before drying and washing; for Recovered fluorescence (×10^3): dried, washed ten times with 250 μl water, resuspended
Method: The retention of peptides 2DOS-1 to 2DOS-16 on a hydrophobic surface (the wells of a polypropylene microtitre plate) was then investigated.
as §11
100 μl aliquots of 10 μM peptides 2DOS-1 to 2DOS-16 and 10 μM TAMRA were placed in the wells of a Costar microtitre plate as shown in FIG. 13:
as §8, with “plate was” for “plates were”
The peptides were allowed to evaporate to dryness overnight in the dark and the microtitre plate was again scanned as described above.
The wells were then washed ten times with 250 μl of water.
The residual surface-bound peptides were finally resuspended in 100 μl of 10 mM tris-HCl (pH 8.0) in 50% (v/v) aqueous acetonitrile and the microtitre plate was again scanned as described above.
as §9
Quantification data (using the data from the 400V scan) is given in Table 2 and shown graphically in FIG. 15.

[5] = Retention of peptides on Greiner polypropylene V-bottom wells; conditions: 400V scan; for Untreated fluorescence: unwashed; for Retained fluorescence: washed 15 minutes in 1 M NaCl in 10 mM tris-HCl (pH 8.0)
Method: as §1, §2, §3, §4, §5, §6, §7, §8, §9

[6] = Retention of peptides in flat-bottomed polypropylene wells; conditions: flat-bottom wells, 500V scan; for Untreated fluorescence: unwashed; for Retained fluorescence: washed 15 minutes in 1 M NaCl in 10 mM tris-HCl (pH 8.0)
Method: as §10, §11, §12, §4, §13, §6, §7
as §8, with “the platen” for “+3 mm”, “during,” for “during”
as §9

Row | Substance | Percent retention [1] | Untreated fluorescence [1] | Retained fluorescence [1] | Percent retention [2] | Untreated fluorescence [2] | Retained fluorescence [2] | Percent retention [3] | Untreated fluorescence [3] | Retained fluorescence [3] | Initial fluorescence (×10^3) [4] | Recovered fluorescence (×10^3) [4] | Percent retention [5] | Untreated fluorescence [5] | Retained fluorescence [5] | Percent retention [6] | Untreated fluorescence [6] | Retained fluorescence [6]
1 | N-TAMRA-Asp-Phe- Ala-Phe-Ser-Phe- Lys-C ({TAMRA}-DFAFSFK) [Peptide 2DOS-6] | 22% | 5,733,046 | 1,256,204 | 39% | 9,141,290 | 3,527,116 | 25% | 666,352 | 167,118 | 33,853 ×10^3 | 1,455 ×10^3 | 22% | 3,889,995 | 849,582 | 36% | 14,539,109 | 5,256,539
2 | N-TAMRA-Asp-Ser- Ala-Ser-Ser-Ser- Lys-C ({TAMRA}-DSASSSK) [Peptide 2DOS-7] | 6% | 5,139,578 | 326,328 | 9% | 8,674,544 | 746,596 | 2% | 706,200 | 15,766 | 29,134 ×10^3 | 0 ×10^3 | 5% | 3,751,280 | 205,430 | 13% | 10,189,473 | 1,303,195
3 | N-TAMPA-Asp-Asp- Ala-Asp-Ser-Asp- Lys-C ({TAMRA}-DDADSDK) [Peptide 2DOS-8] | 1% | 6,587,741 | 93,455 | 2% | 10,130,734 | 202,943 | 1% | 842,984 | 5,071 | 33,615 ×10^3 | 3 ×10^3 | 2% | 3,903,470 | 80,770 | 4% | 17,576,485 | 637,350
4 | N-TAMPA-Asp-Asp- Asp-Asp-Asp-Asp- Asp-C ({TAMRA}-DDDDDDD) [Peptide 2DOS-16] | 0% | 5,387,850 | 16,194 | 0% | 9,782,527 | 44,420 | 0% | 789,858 | 3,864 | 30,335 ×10^3 | 3 ×10^3 | 1% | 3,813,060 | 25,885 | 1% | 15,555,465 | 229,090
5 | N-TAMRA-Phe-Asp- Phe-Asp-Phe-Asp- Phe-Asp-Phe-C ({TAMRA}-FDFDFDFDF) [Peptide 2DOS-10] | 24% | 6,043,214 | 1,439,375 | 33% | 8,445,090 | 2,773,876 | 17% | 602,771 | 100,265 | 28,479 ×10^3 | 2,884 ×10^3 | 22% | 3,043,118 | 654,623 | 39% | 13,661,609 | 5,353,630
6 | N-TAMRA-Ser-Asp- Ser-Ala-Ser-Ser- Ser-Lys-Ser-C ({TAMRA}-SDSASSSKS) [Peptide 2DOS-3] | 12% | 5,660,618 | 673,940 | 22% | 9,020,171 | 1,951,694 | 5% | 744,747 | 37,388 | 32,913 ×10^3 | 8 ×10^3 | 10% | 3,583,352 | 342,889 | 20% | 14,152,875 | 2,836,015
7 | N-TAMRA-Asp-Ser- Asp-Ser-Asp-Ser- Asp-C ({TAMRA}-DSDSDSD) [Peptide 2DOS-15] | 1% | 6,488,130 | 50,584 | 1% | 10,493,100 | 122,851 | 1% | 868,334 | 5,116 | 30,845 ×10^3 | 2 ×10^3 | 1% | 4,771,265 | 65,142 | 1% | 15,290,885 | 104,523
8 | N-TAMRA-Asp- Norleu- Asp-Norleu-Asp- Norleu-Asp-C [Peptide 2DOS-13] | 8% | 4,886,617 | 387,738 | 11% | 7,623,227 | 806,022 | 9% | 708,162 | 62,590 | 26,181 ×10^3 | 25 ×10^3 | 10% | 3,635,229 | 378,287 | 17% | 12,935,739 | 2,162,164
9 | N-TAMPA-Asp-Asp- Asp-Ala-Asp-Ser- Asp-Lys-Asp-C ({TAMRA}-DDDADSDKD) [Peptide 2DOS-4] | 1% | 5,661,181 | 74,143 | 2% | 8,265,596 | 159,080 | 1% | 783,885 | 6,714 | 32,313 ×10^3 | 0 ×10^3 | 1% | 3,937,734 | 50,669 | 2% | 11,885,905 | 198,507
